Laboratory results published in paper PMC10136936.

Target: Recombinant hemagglutinin from influenza A/California/04/2009 (H1N1), amino acids 1-519 (Influenza A/California/04/2009 (H1N1)) (UniProt C3W5S1)
Experiment: SEC

Substance “Recombinant hemagglutinin from influenza A/California/04/2009 (H1N1), amino acids 1-519 (from UniProt C3W5S1 1-519) (domain or fragment)” has a stoichiometry N of 3.
